From patent publication US6284729A, “Methods and reagents for regulating obesity” (Children's Medical Center Corporation, priority 1998, dated 2001)
One block for each molecule: values may come before it.

Key:
syndecan-1 ectodomain = target: T1, syndecan-1 ectodomain (Mus musculus, UniProt P18828); experiment: Binding of radioactive syndecan-1 ectodomain to neuropeptides immobilized on nitrocellulose membrane (autoradiography); conditions: peptides immobilized on nitrocellulose, UV cross-linked
T1 sequence (P18828 23-255 limits assumed): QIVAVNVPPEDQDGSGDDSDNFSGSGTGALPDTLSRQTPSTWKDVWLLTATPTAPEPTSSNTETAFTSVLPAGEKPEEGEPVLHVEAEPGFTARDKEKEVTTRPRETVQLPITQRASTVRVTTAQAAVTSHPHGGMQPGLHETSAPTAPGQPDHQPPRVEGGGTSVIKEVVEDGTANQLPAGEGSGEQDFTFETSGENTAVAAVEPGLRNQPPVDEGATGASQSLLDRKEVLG
Description: Binding of syndecan-1 ectodomain to neuropeptides involved in body weight regulation was tested. Varying concentrations of the peptides were immobilized on a nitrocellulose membrane (for example, 1000 nmol) and fixed by UV cross-linking. The membrane was incubated with radioactive syndecan-1 ectodomain to allow binding and then washed and analyzed by autoradiography.

Mc3r = conditions: recombinant protein; cited from earlier work
Mc4r = conditions: recombinant protein; cited from earlier work
melanocortin-4 receptor = experiment: MC4-R adenylyl cyclase assay (conversion of ATP to cAMP) in membranes from 293 cells transfected with the melanocortin-4 receptor, with ndp-MSH; format: biochemical; conditions: for potentiation of MC4-R inhibition by AGRP (formation of cAMP from ATP): membranes preincubated with substance plus AGRP, FIGS. 1a and 1b
Description: Based on the interaction of AGRP and syndecan-1, the putative interaction between agouti/AGRP and syndecaniheparan sulfate in a functional assay was tested. Membranes from 293 cells transfected with the melanocortin-4 receptor were preincubated with buffer or as indicated with AGRP, heparan sulfate, syndecan-1 ectodomain, heparan sulfate plus AGRP, and syndecan-1 ectodomain plus AGRP. Samples were then mixed with or without the indicated concentration of ndp-{character pullout}MSH and conversion of ATP to cAMP measured in the assay.

Molecule: NC(=O)CC[C@@H]1NC(=O)[C@H](Cc2ccccc2)NC(=O)[C@H](Cc2ccc(O)cc2)NC(=O)[C@@H](N)CSSC[C@@H](C(=O)N2CCC[C@H]2C(=O)N[C@@H](CCCN=C(N)N)C(=O)NCC(N)=O)NC(=O)[C@H](CC(N)=O)NC1=O [vasopressin, reference compound]
interaction with syndecan-1 (binding of radioactive syndecan-1 ectodomain to immobilized peptide) (syndecan-1 ectodomain): interact with syndecan-1

interaction with syndecan-1 (binding of radioactive syndecan-1 ectodomain to immobilized peptide) (syndecan-1 ectodomain): interact with syndecan-1
Molecule: AGRP: Agouti-related protein, 132 aa hypothalamic analog of agouti; inhibitor of MC3-R and MC4-R (SSRRCVRLHESCLGQQVPCCDPCATCYCRFFNAFCYCRKLGTAMNPCSRT; UniProt O00253 83-132, looked up)
antagonism of Mc3r (Mc3r): potent, selective antagonist
antagonism of Mc4r (Mc4r): potent, selective antagonist

interaction with syndecan-1 (binding of radioactive syndecan-1 ectodomain to immobilized peptide) (syndecan-1 ectodomain): interact with syndecan-1
Molecule: FGF-2: fibroblast growth factor-2, heparin-binding growth factor

Molecule: heparan sulfate [reference compound]
potency of AGRP at inhibiting MC4-R activation in presence of the substance (melanocortin-4 receptor; 1 μg/ml heparan sulfate): 10 nM AGRP is as potent as 100 nM AGRP
potentiation of MC4-R inhibition by AGRP (formation of cAMP from ATP) (melanocortin-4 receptor): potentiates melanocortin-4R (MC4-R) inhibition by AGRP

interaction with syndecan-1 (binding of radioactive syndecan-1 ectodomain to immobilized peptide) (syndecan-1 ectodomain): interact with syndecan-1
B1: agouti: 131 aa paracrine signaling molecule; switches hair follicle melanocytes from black to yellow pigment (protein, UniProt Q03288 23-131, looked up)
Agouti-signaling protein: HLALEETLGDDRSLRSNSSMNSLDFSSVSIVALNKKSKKISRKEAEKRKRSSKKKASMKKVARPPPPSPCVATRDSCKPPAPACCDPCASCQCRFFGSACTCRVLNPNC

B2: syndecan-1 ectodomain: soluble extracellular domain of syndecan-1, a transmembrane heparan sulfate proteoglycan (protein, UniProt P18827 23-254, looked up)
extracellular domain: QIVATNLPPEDQDGSGDDSDNFSGSGAGALQDITLSQQTPSTWKDTQLLTAIPTSPEPTGLEATAASTSTLPAGEGPKEGEAVVLPEVEPGLTAREQEATPRPRETTQLPTTHLASTTTATTAQEPATSHPHRDMQPGHHETSTPAGPSQADLHTPHTEDGGPSATERAAEDGASSQLPAAEGSGEQDFTFETSGENTAVVAVEPDRRNQSPVDQGATGASQGLLDRKEVLG
modifications: extracellular domain
notes: soluble extracellular domain of syndecan-1, a transmembrane heparan sulfate proteoglycan
potency of AGRP at inhibiting MC4-R activation in presence of the substance (melanocortin-4 receptor; 1 ng/ml syndecan-1 ectodomain): 10 nM AGRP is as potent as 100 nM AGRP
potentiation of the action of agouti on the MC4-R (melanocortin-4 receptor; biochemical assay, agouti instead of AGRP): potentiates the action of agouti on the MC4-R
concentration dependence of potentiation of AGRP's action (melanocortin-4 receptor; low versus higher concentrations of syndecan-1 ectodomain): potentiation is less pronounced at higher concentrations
potentiation of MC4-R inhibition by AGRP (formation of cAMP from ATP) (melanocortin-4 receptor): potentiates melanocortin-4R (MC4-R) inhibition by AGRP
